In US7670782B2, “Screening of compounds for CAT1 transporter activity” (XenoPort, Inc., priority 2005, dated 2010):

Test system: NCCC[C@H](N)C(=O)O
Experiment: cells, lysate or membranes
Details: other: direct uptake into LLCPK-TREx-hCAT1 cells

hCAT1 (Homo sapiens), sequence (chain, as listed by the source): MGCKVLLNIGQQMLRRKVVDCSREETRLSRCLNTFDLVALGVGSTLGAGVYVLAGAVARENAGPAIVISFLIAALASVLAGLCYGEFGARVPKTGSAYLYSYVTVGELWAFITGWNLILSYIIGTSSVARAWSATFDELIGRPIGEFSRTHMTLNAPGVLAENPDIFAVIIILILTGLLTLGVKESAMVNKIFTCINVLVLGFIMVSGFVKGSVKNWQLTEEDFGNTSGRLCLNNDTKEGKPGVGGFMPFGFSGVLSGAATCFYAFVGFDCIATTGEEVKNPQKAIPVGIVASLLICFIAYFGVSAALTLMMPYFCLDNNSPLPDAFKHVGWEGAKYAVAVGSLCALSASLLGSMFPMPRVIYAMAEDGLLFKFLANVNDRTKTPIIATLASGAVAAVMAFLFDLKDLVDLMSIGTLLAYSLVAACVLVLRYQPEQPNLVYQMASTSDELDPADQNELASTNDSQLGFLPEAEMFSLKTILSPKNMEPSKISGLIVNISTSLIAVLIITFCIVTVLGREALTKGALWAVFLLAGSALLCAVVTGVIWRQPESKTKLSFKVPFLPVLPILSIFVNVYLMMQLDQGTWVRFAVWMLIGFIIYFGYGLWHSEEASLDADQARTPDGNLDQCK

Substance: hCAT1 (Homo sapiens)
- Km: 200 µM
- Km (5 minutes at room temperature, specific uptake (+TET minus no TET)): 184 µM
